Data reported in US20150338398.
Like-named read-outs stand apart in the source and are kept apart here.

Tested on: TAL-PrA (GAL1 promoter TAL)
Settings: ChIP-qPCR

Substance | binding signal [fold vs ACT1] | also measured
AAATTAATCAGCGGTGAC (double strand) [REV7 similar site (ChrIX)] | 0.77 | –
GAL1 promoter TAL target (ChrII 278829-278846) | – | binding signal (not enriched in glucose): 6.14 fold vs ACT1
GGGGTAATTAAAATTTCT (double strand) [IQG1 similar site (ChrXVI)] | 0.76 | –
GGGGTAATTAATCATTTT (double strand) [SCC2 similar site (ChrIV)] | 0.65 | –
GGGGTAATTAATGTAAAT (double strand) [IDP3 similar site (ChrXIV)] | 0.94 | –
TTATACATTAATCAGCGA (double strand) [ENB1 similar site (ChrXV)] | – | binding signal (GAL1 at least 4.6-fold better): 1.34 fold vs ACT1
